Experimental findings from article PMC10681232 are described below.

The target of assay [1] is Flag-tagged Atlantic halibut Aqp1ab1 wild-type canonical channel (Flag-HhAqp1ab1-WT) (Atlantic halibut (Hippoglossus hippoglossus)).
Assay [2] deals with Flag-tagged Senegalese sole Aqp1ab2 wild-type canonical channel (Flag-SsAqp1ab2-WT) (Senegalese sole (Solea senegalensis)).

Regarding “HA-tagged Atlantic halibut Aqp1ab1 splice variant 1 (HA-HhAqp1ab1_v1)”, the inhibition of osmotic water permeability (Pf) of X. laevis oocytes coexpressing HhAqp1ab1 v1 and HhAqp1ab1-WT in ratios from 0.05 to 50, untagged forms, with respect to the canonical channel only in assay [1] is 94%.

On to “HA-tagged Senegalese sole Aqp1ab2 splice variant 2 (HA-SsAqp1ab2_v2) (natural protein)”, for which the inhibition of osmotic water permeability (Pf) of X. laevis oocytes expressing SsAqp1ab2-WT plus YwhazLb, treated with FSK, after injecting equal cRNA amounts of WT and SsAqp1ab2 v2, untagged forms in assay [2] stood at 84%.
